In test [1] the target is T1, SPOP^MATH (SPOP MATH domain) (Homo sapiens, UniProt O43791).
T1 construct: bacterially expressed SPOP protein (SPOP^MATH); hexahistidine-MBP (with HRV 3C site) (N, cleaved yes); made in house; host or cells: E. coli BL21 (DE3); tracer peptide synthesized by Peptide Synthetics
Put plainly: FP competition assay: unlabelled peptide versus Puc-5Flu peptide on SPOP^MATH. The test is classed as binding. Particulars: read-out: IC50, FP competition, MyD88 peptides of varying length (Figure 1F). As to the method: (§1) Peptides and SPOP^MATH protein were diluted in FP buffer (50 mM HEPES pH 7.5, 100 mM NaCl, 1 mM TCEP, 0.005% Tween-20). Measurements were made in 384-well black flat-bottom low-flange plates (Corning) using 20 μl reaction volumes. Plates were equilibrated at room temperature for 30 minutes before reading. Millipolarization (mP) measurements were taken in a Hidex Sense microplate reader (Hidex) at 25°C, with excitation at 490 nm (20 nm filter), emission at 520 nm (14 nm filter), and a G-factor of 1.
The technical duplicate mP values were averaged, and error bars represent standard deviation. Data were plotted and analyzed using Prism 9 software. […] IC50 values from three independent experiments were averaged and the standard deviation was calculated.

The target of test [2] is T1, SPOP^MATH (SPOP MATH domain). Put plainly: Fluorescence polarization (FP) binding of 5Flu-labelled peptides to SPOP^MATH. Particulars: FP direct binding; 6-50 nM 5Flu-peptide, two-fold dilution series of SPOP^MATH; 50 mM HEPES pH 7.5, 100 mM NaCl, 1 mM TCEP, 0.005% Tween-20; 30 min at room temperature, read at 25°C; one-site total binding fit; mean ± SD of three independent experiments; ~ = estimated; read-out: Kd, binding of fluorescently (5Flu) labeled peptide to SPOP^MATH. The method, then:
as §1

The target in test [3] is Pdx1 15-mer peptide, fluorescently labeled (SPOP-binding region of pancreas/duodenum homeobox protein 1) (not stated (Figure 5A aligns a Homo sapiens and a Mesocricetus auratus sequence)). Kind of test: fluorescence polarisation; two-fold dilution series of SPOP^MATH mixed with a constant 6-50 nM 5Flu-labeled peptide; 50 mM HEPES pH 7.5, 100 mM NaCl, 1 mM TCEP, 0.005% Tween-20; 25°C; one-site total binding fit; mean of three independent experiments. A general note: Polarisation of emitted light reports the rotation of a fluorescent probe.

The target in test [4] is T2, SPOP MATH domain (SPOP^MATH; residues 28-166) (human), O43791.
T2 chain: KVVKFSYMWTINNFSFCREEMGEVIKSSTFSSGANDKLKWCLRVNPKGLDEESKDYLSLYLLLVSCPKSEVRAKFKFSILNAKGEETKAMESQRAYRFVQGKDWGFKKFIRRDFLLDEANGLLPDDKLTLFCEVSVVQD
Put plainly: FP. Particulars: modification not given.

In test [5] the target is T3, SPOP MATH domain (SPOP^MATH; residues 28-166) (human, UniProt O43791 28-166).
T3 chain: T2 chain
Kind of test: FP.

For test [6], the target named is T3, SPOP MATH domain (SPOP^MATH; residues …). Put plainly: FP.
The target in test [7] is T4, SPOP MATH domain (SPOP^MATH; residues 28-166) (human, UniProt O43791 28-166).
T4 construct: the methods print 28-116; Cleaved with HRV 3C protease; also called speckle-type BTB/POZ protein MATH domain; source: E. coli BL21 (DE3), purified (Ni-NTA, tag cleavage, reverse Ni-NTA, SEC); not shown: His6, N-terminal, cleaved; MBP, N-terminal, cleaved
Put plainly: fluorescence polarisation; competition: two-fold dilution series of unlabeled peptide with 50 nM Puc-5Flu peptide and 5 μM SPOP^MATH; 50 mM HEPES pH 7.5, 100 mM NaCl, 1 mM TCEP, 0.005% Tween-20; 25°C. Particulars: both partners purified.

Test [8] concerns the target T4, SPOP MATH domain (SPOP^MATH; residues …). Put plainly: fluorescence polarisation; two-fold dilution series of SPOP^MATH mixed with a constant 6-50 nM 5Flu-labeled peptide; 50 mM HEPES pH 7.5, 100 mM NaCl, 1 mM TCEP, 0.005% Tween-20; 25°C; one-site total binding fit; mean of three independent experiments. Particulars: both partners purified.

Results on 13 molecules are retold here after PMC7618200 (The Biochemical journal, 2025).

Read-outs that look alike come from different tables or passages of the source. Ends that are not written are not given here. Peptide text beside a SMILES is read from it. * marks the point of attachment. 5FAM = O=C1OC2(c3ccc(O)cc3Oc3cc(O)ccc32)c2ccc(C(=O)*)cc21; 5Flu = 5-carboxyfluorescein label

In general, IC50 refers to the point on the concentration scale where inhibition reaches its midpoint. `CC(C)C[C@H](NC(=O)[C@@H]1CCCN1)C(=O)N[C@@H](CCC(N)=O)C(=O)N[C@H](C(=O)N[C@@H](C)C(=O)N[C@@H](C)C(=O)N[C@H](C(=O)N[C@@H](CC(=O)O)C(=O)N[C@@H](CO)C(=O)N[C@@H](CO)C(=O)N[C@H](C(=O)N1CCC[C@H]1C(=O)N[C@@H](CCCNC(=N)N)C(=O)N[C@H](C(=O)O)[C@@H](C)O)C(C)C)C(C)C)C(C)C`: the IC50 in test [1] is roughly 518 µM.

The term Kd denotes the constant that tells how readily two partners part at equilibrium. `CC(C)[C@H](NC(=O)c1ccc2c(c1)C(=O)OC21c2ccc(O)cc2Oc2cc(O)ccc21)C(=O)N[C@@H](C)C(=O)N[C@@H](CCC(=O)O)C(=O)N1CCC[C@H]1C(=O)N[C@@H](CCC(=O)O)C(=O)N[C@@H](CCC(N)=O)C(=O)N[C@@H](CC(=O)O)C(=O)N[C@@H](CS)C(=O)N[C@@H](C)C(=O)N[C@H](C(=O)N[C@H](C(=O)N[C@@H](CO)C(=O)NCC(=O)N[C@@H](CCC(=O)O)C(=O)N[C@@H](CCC(=O)O)C(=O)O)[C@@H](C)O)C(C)C` (5FAM-VAEPEQDCAVTSGEE-OH): in test [2], the Kd is roughly 48 µM.

In the case of “SPOP MATH domain (SPOP^MATH; residues 28-166) (from UniProt O43791 28-166) (domain or fragment)”, the Kd in test [3] was 48 µM.

AEKPLQVAAVAAAVPRT: in test [1], the IC50 is roughly 2110 µM.

In the case of AEKPLQVAAVAAAVPRT […], the IC50 in test [4] came out at 2110 µM.

With DTDNLQSEQLSSSSDGS [SENP7 17-mer peptide], the IC50 in test [5] was roughly 2400 µM.

Turning to SRENLACDEVTSTTS [Puc peptide (unlabeled competitor; natural Puc peptide)], the IC50 in test [6] came to 98.6 µM.

B1: Caprin1 17-mer peptide 426QPEATQVPLVSSTSEGY442 (peptide)
peptide: QPEATQVPLVSSTSEGY
notes: Caprin1, human, residues 426-442; source: synthetic peptide
The molecule B1 yielded an IC50 in test [5] of 2.6 µM. Also, the binding result in test [7] is given as “binds”.

B2: chimeric MyD88-Puc peptide AEKPLQVAAVTSTTS (peptide)
peptide: AEKPLQVAAVTSTTS
notes: Puckered (Puc) SBC; also called chimeric peptide; source: synthetic peptide (Peptide Synthetics, Peptide Protein Research Limited)
B2: the binding result in test [7] is given as “binds”.

In turn, LVSSTSEGY [Caprin1 9-mer peptide] came in with an IC50 in test [5] of roughly 773 µM.

B3: SRC-3 17-mer peptide 91NDDDVQKADVSSTGQGV107 (peptide)
peptide: NDDDVQKADVSSTGQGV
notes: also called NCoA-3; source: synthetic peptide
B3 had an IC50 in test [5] of 16.9 µM. Moreover, in test [7], the binding result was “binds”.

B4: Puc-5Flu peptide (SRENLACDEVTSTTSK-5Flu) (peptide)
peptide: SRENLACDEVTSTTSK(5Flu)
notes: added C-terminal lysine that carries the label; also called ^5Flu-Puc peptide; fluorescently labeled Puc peptide; source: synthetic peptide (Peptide Synthetics, Peptide Protein Research Limited)
B4 displayed a Kd in test [8] of 1.1 µM.

B5: SETD2 17-mer peptide DKGSVQAPEISSNSIKD (printed 363-1379) (peptide)
peptide: DKGSVQAPEISSNSIKD
notes: SET domain-containing protein 2 (SETD2), human; also called SET domain-containing protein 2; source: synthetic peptide
In turn, B5 showed an IC50 in test [5] of roughly 699 µM. Besides, the binding result in test [7] is on record as “binds”.
